Laboratory results from the supplement of paper PMC10567573.

B1: SMARCE1 (parent)
chain: YHNSPAYLAYINAKSRAEAALEEE
B2: CHIT1 (parent)
chain: CSWKGATKQRIQDQKVPYIFRDNQ

Variants of: B1
Assay: protein stability index of a GFP-peptide fusion (GPS, HEK-293T) (PSI 1-6); higher = more stable
Details: c terminus: a fixed tail appended
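Also: lentivirally expressed fusions sorted by FACS into six bins by GFP to DsRed ratio, PSI derived from sequencing read proportions per bin multiplied by bin number.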

Protein stability index, by site and new letter:
E22: M 2.01 | F 2.04 | A 2.7 | D 2.21 | N 2.44 | C 2.17 | L 4.41 | R 2.25 | Q 1.91 | Y 1.9 | P 2.73 | W 2.29 | G 2.67 | T 2.36 | S 2.41 | I 2.59 | K 1.86 | H 2.83 | V 2.73
A19: V 2.58 | L 2.49 | P 1.92 | Q 2.12 | I 2.05 | S 2.06 | M 2.24 | K 2.05 | N 2.43 | T 2.41 | H 2.02 | R 2.59 | Y 2.46 | W 2.48
A20: N 2.42 | V 2.56 | E 2.32 | I 2.25 | S 1.84 | D 2.97 | L 2.15 | C 2.27 | F 1.69 | Q 1.79 | K 2.71 | T 1.61 | G 3.01 | P 2.66 | R 2.89 | H 2.51 | M 1.32 | W 1.93 | Y 3.29
L21: K 2.51 | I 3.51 | E 1.84 | H 2.77 | C 2.89 | P 3.6 | R 2.1 | G 2.15 | W 2.94 | A 2.26 | Y 1.94 | S 1.95 | V 2.67 | T 1.59 | N 2.46 | M 2.04 | D 1.88 | Q 2.07 | F 3.43
E24: N 2.47 | C 2.38 | R 2.71 | G 1.95 | Q 3.45 | Y 1.71 | W 1.63 | K 2.91 | S 3.47 | M 2.55 | F 2.59 | A 2.12 | H 1.91 | V 2.19 | L 1.56 | P 1.45 | T 2.17 | D 2.3 | I 1.88
E23: R 1.82 | P 2.58 | V 2.44 | D 1.54 | M 1.52 | F 2.31 | C 2.79 | Q 1.59 | G 3.34 | A 2.34 | I 2.79 | H 2.13 | Y 1.58 | S 1.54 | W 1.81 | T 3.01 | L 1.59 | K 2.05 | N 1.57

Variants of: B2
Assay: as above
Details: c terminus: a fixed tail appended

Protein stability index: each site, then its substitutions
I11: K 2.69 | N 2.56 | L 3.14 | Q 3.54 | G 2.32 | D 3.74 | E 3.33 | S 3.01 | A 2.85 | H 3.42 | F 2.44 | P 2.1 | R 3.15 | W 2.07 | M 2.5 | C 2.3 | T 2.66 | Y 2.51 | V 2.98
W3: I 2.95 | E 4.03 | C 2.06 | A 2.78 | Q 3.6 | T 3.23 | H 3.06 | M 2.69 | R 3.71 | Y 3.04 | F 2.78 | S 3.14 | V 3.46 | L 2.71 | D 3.73 | N 2.93 | G 3.19 | K 3.63
R10: F 2.5 | L 2.41 | Y 2.54 | Q 2.8 | C 2.63 | I 1.64 | S 2.81 | N 3.46 | T 3.68 | W 1.67 | E 3.87 | V 2.43 | M 2.6 | H 2.94 | A 3.57 | G 2.38 | K 2.67 | D 2.71 | P 2.47
K4: F 1.26 | D 2.7 | P 3.33 | N 2.5 | H 3.06 | A 1.94 | V 1.94 | Y 2.2 | R 2.75 | L 1.84 | W 2.12 | M 2.6 | G 2.68 | E 2.43 | T 2.49 | S 2.6 | Q 3.06 | C 2.36 | I 2.04
T7: C 2.29 | N 2.62 | F 2.68 | G 2.77 | P 2.74 | Y 3.94 | H 2.91 | Q 2.89 | M 2.28 | E 3.41 | R 2.75 | W 1.12 | D 3.29 | V 2.42 | I 2.3 | A 2.51 | S 3.32 | L 2.52 | K 2.4
Q12: W 1.12 | R 1.83 | G 2.31 | N 2.28 | S 2.6 | A 2.67 | I 2.02 | Y 2.38 | L 2.18 | H 2.09 | E 2.45 | F 1.69 | P 2.78 | M 3.82 | T 2.9 | D 3.08
C1: F 1.75 | I 2.62 | A 3.17 | M 2.89 | L 2.74 | Y 1.96 | V 2.91 | W 2.26 | H 3.08 | Q 2.81 | D 3.26 | R 2.86 | E 3.13 | T 2.79 | G 3.47 | P 2.86 | S 3.58 | N 2.88 | K 3.36
S2: H 2.42 | E 3.25 | G 2.07 | A 2.39 | M 2.43 | T 2.17 | L 2.18 | Y 1.49 | Q 1.93 | N 2.53 | F 3.22 | R 2 | P 3.02 | W 2.69 | D 3.06 | I 1.74 | V 1.85 | K 2.01 | C 2.06
K8: A 2.58 | T 2.07 | S 2.44 | C 1.76 | E 3.19 | Y 2.4 | P 2.23 | M 2.01 | H 2.53 | D 2.59 | R 2.81 | N 2.54 | V 3.23 | Q 2.12 | W 2.03 | G 2.95 | F 2.21 | L 2.77 | I 2.15
G5: R 2.38 | L 2.77 | D 2.67 | V 2.32 | M 2.02 | K 2.79 | W 3.45 | I 2.11 | H 2.59 | P 2.38 | S 3.28 | E 3.34 | N 2.69 | C 1.57 | Y 2.12 | F 1.37 | T 2.53
Q9: K 2.44 | T 2.8 | Y 2.17 | G 2.88 | H 2.66 | N 2.62 | I 2.92 | W 1.39 | F 1.94 | P 2.25 | S 2.57 | A 2.5 | C 1.07 | L 1.78 | M 2.29 | R 2.37 | V 2.44 | E 2.42 | D 2.58
A6: H 2.51 | V 2.25 | P 3.05 | E 2.79 | N 2.83 | F 2.14 | M 2.64 | I 2.32 | T 2.27 | Y 2.31 | K 2.23 | L 2.43 | S 2.4 | Q 2.54 | C 2.06 | R 2.73 | D 3.47 | W 4.23 | G 1.82
D13: A 2.81 | C 2.47 | E 2.52
